In patent US20200123254A1 (LENTIGEN TECHNOLOGY, published 2020):
Changes are numbered by the printed parent chain.

T1: CD19-Fc peptide (R&D, Minneapolis, Minn.) (UniProt P15391 20-291)
T1 construct: Bought reagent; also called recombinant CD19-Fc peptide; not shown: Fc part; bought reagent, detected with anti-human Fc F(ab')2-AF647
T1 sequence (looked up): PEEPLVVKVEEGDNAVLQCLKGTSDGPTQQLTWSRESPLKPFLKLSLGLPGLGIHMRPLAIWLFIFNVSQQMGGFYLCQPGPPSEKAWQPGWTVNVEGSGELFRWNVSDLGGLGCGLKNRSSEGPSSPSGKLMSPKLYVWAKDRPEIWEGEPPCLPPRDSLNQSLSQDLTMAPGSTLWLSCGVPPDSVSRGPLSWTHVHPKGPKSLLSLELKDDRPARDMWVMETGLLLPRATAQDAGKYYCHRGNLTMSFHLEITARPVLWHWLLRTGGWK

T2: recombinant human CD19 (labeled CD19) (human, UniProt P15391 20-291, limits assumed, fluorescent label, kind and site not stated)
T2 construct: The antigen titrated on yeast is only called 'labeled CD19'; also called fluorescently tagged antigen
T2 sequence (looked up): T1 sequence (looked up)

B1: LTG2050 (LP-M19217-CD8 TM-41BB-CD3 zeta) CAR (other)
chain: EVQLVQSGAEVKKPGASVKVSCKASGYTFTSYYMHWVRQAPGQGLEWMGIINPSGGSTSYAQKFQGRVTMTRDTSTSTVYMELSSLRSEDTAVYYCARSDRGITATDAFDIWGQGTMVTVSSGGGGSGGGGSGGGGSQSVLTQPPSVSVAPGQTAKITCGGSDIGNKNVHWYQQKPGQAPVLVVYDDYDRPSGIPERFSGSNSGDAATLTISTVEVGDEADYFCQVWDSSGDPYWVFGGGTQLTVLGAAATTTPAPRPPTPAPTIASQPLSLRPEACRPAAGGAVHTRGLDFACDIYIWAPLAGTCGVLLLSLVITLYCKRGRKKLLYIFKQPFMRPVQTTQEEDGCSCRFPEEEEGGCELRVKFSRSADAPAYQQGQNQLYNELNLGRREEYDVLDKRRGRDPEMGGKPRRKNPQEGLYNELQKDKMAEAYSEIGMKGERRRGKGHDGLYQGLSTATKDTYDALHMQALPPR
notes: Chimeric antigen receptor on the surface of transduced primary human T cells; also called ScFv1-CD8 TM-41BB-CD3 zeta
B2: LTG2066 (LP-M19217-2-CD8 TM-41BB-CD3 zeta) CAR (other)
chain: B1 chain with L45F, I50L, G56S, S85N, S148P, T158I, S229G
notes: Chimeric antigen receptor on the surface of transduced primary human T cells; also called ScFv3-CD8TM-4-1BB-CD3 zeta
B3: LTG2069 (LP-M19217-29-CD8 TM-41BB-CD3 zeta) CAR (other)
chain: B1 chain with I50M, V169A, P195S, S229G, Y234F
notes: Chimeric antigen receptor on the surface of transduced primary human T cells; also called ScFv6-CD8TM-4-1BB-CD3 zeta
B4: LTG2068 (LP-M19217-23-CD8 TM-41BB-CD3 zeta) CAR (other)
chain: B1 chain with S31G, M48I, I50L, A61E, T69A, N166D, S229G, S230I
notes: Chimeric antigen receptor on the surface of transduced primary human T cells; also called ScFv5-CD8TM-4-1BB-CD3 zeta
B5: LTG2065 (LP-M19217-1-CD8 TM-41BB-CD3 zeta) CAR (other)
chain: B1 chain with I50L, Q153R, T154M, S229G, V236M
notes: Chimeric antigen receptor on the surface of transduced primary human T cells; also called ScFv2-CD8TM-4-1BB-CD3 zeta
B6: LTG2067 (LP-M19217-7-CD8 TM-41BB-CD3 zeta) CAR (other)
chain: B1 chain with K12N, I50M, A105S, V149L, D189N, A206S, S229G
notes: Chimeric antigen receptor on the surface of transduced primary human T cells; also called ScFv4-CD8TM-4-1BB-CD3 zeta
B7: LTG2070 (LP-M19217-38-CD8 TM-41BB-CD3 zeta) CAR (other)
chain: B1 chain with K13R, Q43R, I50L, K63E, T74M, T104S, T154M, D189N, S229G, V245D
notes: Chimeric antigen receptor on the surface of transduced primary human T cells; also called ScFv7-CD8TM-4-1BB-CD3 zeta
B8: LTG2071 (LP-M19217-40-CD8 TM-41BB-CD3 zeta) CAR (other)
chain: B1 chain with K13R, E46V, I50L, I157T, F223V, S229G
notes: Chimeric antigen receptor on the surface of transduced primary human T cells; also called ScFv8-CD8TM-4-1BB-CD3 zeta
B9: human anti-CD19 ScFv binder M19217 (scFv)
scFv: EVQLVQSGAEVKKPGASVKVSCKASGYTFTSYYMHWVRQAPGQGLEWMGIINPSGGSTSYAQKFQGRVTMTRDTSTSTVYMELSSLRSEDTAVYYCARSDRGITATDAFDIWGQGTMVTVSSGGGGSGGGGSGGGGSQSVLTQPPSVSVAPGQTAKITCGGSDIGNKNVHWYQQKPGQAPVLVVYDDYDRPSGIPERFSGSNSGDAATLTISTVEVGDEADYFCQVWDSSGDPYWVFGGGTQLTVLG
notes: also called ScFv1; founder clone
B10: human anti-CD19 ScFv binder M19217-29 (scFv)
scFv: B9 scFv with I50M, V169A, P195S, S229G, Y234F
notes: also called ScFv6
B11: human anti-CD19 ScFv binder M19217-2 (scFv)
scFv: B9 scFv with L45F, I50L, G56S, S85N, S148P, T158I, S229G
notes: also called ScFv3
B12: human anti-CD19 ScFv binder M19217-40 (scFv)
scFv: B9 scFv with K13R, E46V, I50L, I157T, F223V, S229G
notes: also called ScFv8
B13: human anti-CD19 ScFv binder M19217-1 (scFv)
scFv: B9 scFv with I50L, Q153R, T154M, S229G, V236M
notes: also called ScFv2
B14: human anti-CD19 ScFv binder M19217-38 (scFv)
scFv: B9 scFv with K13R, Q43R, I50L, K63E, T74M, T104S, T154M, D189N, S229G, V245D
notes: also called ScFv7
B15: human anti-CD19 ScFv binder M19217-23 (scFv)
scFv: B9 scFv with S31G, M48I, I50L, A61E, T69A, N166D, S229G, S230I
notes: also called ScFv5
B16: human anti-CD19 ScFv binder M19217-7 (scFv)
scFv: B9 scFv with K12N, I50M, A105S, V149L, D189N, A206S, S229G
notes: also called ScFv4

Assays:
[1] = target: T1, CD19-Fc peptide (R&D, Minneapolis, …); assay: flow cytometry of CAR-transduced primary human T cells stained with CD19-Fc then anti Fc-AF647; untransduced T cells set as 0%
Description: FIG. 3 depicts anti-CD19 CAR surface expression in primary human T cells. CAR T cells redirected to CD19 tumor antigen via the use of ScFv domains (as listed in each panel) were generated by lentiviral transduction with CAR expression constructs. CART detection was performed by flow cytometry. T cells were washed twice in cold PBS-EDTA buffer and stained with CD19-Fc peptide followed by anti Fc-AF647 reagent. At least 20,000 cells were acquired for each analysis. Cells were gated based on forward scatter and side scatter, singlet discrimination, and 7AAD negativity so that only viable cells were analyzed. Data were acquired on MACSQuant 10 flow cytometer in the APC channel. UTD, un-transduced negative control cells. The marker in each panel identifies the CAR-expressing population, and are listed as percent of total transduced T cells analyzed.
For cell staining, half a million CAR T transduced cells were harvested from culture, washed two times in cold AutoMACS buffer supplemented with 0.5% bovine serum albumin (Miltenyi Biotec), and CAR surface expression detected by staining with CD19-Fc peptide (R&D, Minneapolis, Minn.) followed by anti Fc-AF647 conjugate (Jackson ImmunoResearch, West Grove, Pa.). Non-transduced cells were used as negative controls. Dead cells in all studies were excluded by 7AAD staining (BD Biosciences, San Jose, Calif.). Cells were washed twice and resuspended in 200 ul Staining Buffer before quantitative analysis by flow cytometry. Flow cytometric analysis was performed on a MACSQuant®10 Analyzer (Miltenyi Biotec), and data plots were generated using FlowJo software (Ashland, Oreg.).
T cells were activated on culture Day 0 with TransAct T cell reagent (active engagement of CD3 and CD28 antigens, Miltenyi Biotec, Inc.) in the presence of IL-2 as described in Materials and Methods. On culture Day 8-10, expression of anti-CD19 CARs on T cell surface was detected by CD19-Fc peptide followed by anti Fc-AF647 and analyzed by flow cytometry.

[2] = target: T2, recombinant human CD19 (labeled CD19); assay: flow cytometry of yeast-displayed scFv titrated with decreasing amounts of labeled CD19
Description: To increase the affinity of m19217, a yeast-display m19217 mutant scFv library was created by using error-prone PCR to create random point mutations in scFv gene sequences. After electroporation, the resulting mutant library was then grown overnight at 30° C. for 16 hours in SDCAA medium and then switched into SGCAA medium at 30° C. for another 16 hours. The mutant library was then sorted through MACS (immunomagentic column, Miltenyi Biotec) with CD19-Fc as the capture antigen to downsize the library and to increase the population of mutants that could bind to CD19-Fc. The strongest binders were then selected by double staining the pools with Anti-c-Myc-Alexa 488 and CD19-Fc/Anti-Hu-Fc and selecting for the binders that had the highest binding affinities as well as c-Myc expression levels. […] Binidng affinities were estimated by flow cytometry of yeast pools using decreasing amounts of labeled CD19.

Row | Binder | CAR expression level (percent of transduced T cells stained by CD19-Fc) [1] | EC50 [2]
1 | B1 | 46% | –
2 | B2 | 21% | –
3 | B3 | 68% | –
4 | B4 | 54% | –
5 | B5 | 64% | –
6 | B6 | 81% | –
7 | B7 | 47% | –
8 | B8 | 21% | –
9 | B9 | – | 0.5 µg/mL
10 | B10 | – | < 0.01 µg/mL
11 | B11 | – | < 0.01 µg/mL
12 | B12 | – | < 0.01 µg/mL
13 | B13 | – | < 0.01 µg/mL
14 | B14 | – | < 0.01 µg/mL
15 | B15 | – | < 0.01 µg/mL
16 | B16 | – | < 0.01 µg/mL
